Experimental data: article PMC5082641

Key:
[1] = target: SpyTag-EGFP (Streptococcus pyogenes); assay: kinetics of covalent ligation by SDS-PAGE and densitometry; equimolar Catcher and Tag-EGFP (10 uM for SpyTag-EGFP; 50 uM for SdyTag-EGFP by S3 and S4 Figs), 100 uM sodium phosphate buffer pH 7, 25°C; second order rate constants from Catcher depletion; triplicates
[2] = target: SdyTag-EGFP (Streptococcus dysgalactiae); assay: as above
[3] = target: SdyTag-EGFP (Streptococcus dysgalactiae); assay: covalent ligation read by SDS-PAGE and densitometry; 50 uM Catcher with 65 uM SdyTag-EGFP (1.3 equivalents), 100 uM sodium phosphate buffer pH 7, 25°C, 40 minutes; quenched with SDS-PAGE loading buffer and boiled; yield with respect to the limiting Catcher; triplicates
[4] = target: SpyTag-EGFP-SdyTag (Streptococcus pyogenes | Streptococcus dysgalactiae); assay: covalent ligation read by SDS-PAGE and densitometry; step-wise reaction of dual-Tag constructs with SpyCatcher, 5 and 30 minutes; at 5 minutes aliquots given additional SpyCatcher or SdyCatcher DANG short for a further 25 minutes

Q: For SpyCatcher (domain or fragment), which second order rate constant of covalent ligation [1] is on record?
A: 322 M⁻¹ s⁻¹

Q: What about the second order rate constant of covalent ligation [2] of the same substance?
A: 1 M⁻¹ s⁻¹

Q: What about the yield of ligated product after 40 minutes [3] of the same substance?
A: 7%

Q: What about the percent of products ligated twice [4] of the same substance?
A: < 10%
